Laboratory results from patent US20250382344A1, “Soluble GLP1/GIP/NPY2 Receptor Triple Agonists” (Boehringer Ingelheim International GmH, priority 2024, published 2025).
Where a chain is given by its changes, count along the chain named. *1 amine or outer side, *2 acyl side, *3 side chain or, on linkers, in order; H or OH if unused. Where no end group is shown, it is not given here. Side-chain parts run from the residue outwards. [ ]: non-standard residue; d: D form. The star is where a group is joined. C20 diacid = O=C(O)CCCCCCCCCCCCCCCCCCC(=O)*; C18 diacid = O=C(O)CCCCCCCCCCCCCCCCC(=O)*; γGlu = O=C(O)[C@H](CCC(=O)[*:2])N[*:1]; εLys = N[C@@H](CCCCN[*:1])C(=O)[*:2]; AEEA = NCCOCCOCC(=O)O; Aib = CC(C)(N)C(=O)O

T1: human neuropeptide Y2 receptor (human, UniProt P49146 1-381)
T1 sequence (looked up): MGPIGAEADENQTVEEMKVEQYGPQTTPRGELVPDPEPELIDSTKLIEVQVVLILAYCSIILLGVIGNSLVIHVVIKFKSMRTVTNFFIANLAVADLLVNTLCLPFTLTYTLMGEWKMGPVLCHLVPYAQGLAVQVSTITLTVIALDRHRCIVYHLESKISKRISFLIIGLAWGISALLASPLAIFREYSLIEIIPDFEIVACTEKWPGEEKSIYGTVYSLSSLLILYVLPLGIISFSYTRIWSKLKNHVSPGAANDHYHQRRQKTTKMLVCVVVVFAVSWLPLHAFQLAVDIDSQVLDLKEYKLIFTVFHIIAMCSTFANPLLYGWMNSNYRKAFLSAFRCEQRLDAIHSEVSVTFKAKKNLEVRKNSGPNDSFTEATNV

T2: human GIP receptor (human, UniProt P48546 22-466)
T2 sequence (looked up): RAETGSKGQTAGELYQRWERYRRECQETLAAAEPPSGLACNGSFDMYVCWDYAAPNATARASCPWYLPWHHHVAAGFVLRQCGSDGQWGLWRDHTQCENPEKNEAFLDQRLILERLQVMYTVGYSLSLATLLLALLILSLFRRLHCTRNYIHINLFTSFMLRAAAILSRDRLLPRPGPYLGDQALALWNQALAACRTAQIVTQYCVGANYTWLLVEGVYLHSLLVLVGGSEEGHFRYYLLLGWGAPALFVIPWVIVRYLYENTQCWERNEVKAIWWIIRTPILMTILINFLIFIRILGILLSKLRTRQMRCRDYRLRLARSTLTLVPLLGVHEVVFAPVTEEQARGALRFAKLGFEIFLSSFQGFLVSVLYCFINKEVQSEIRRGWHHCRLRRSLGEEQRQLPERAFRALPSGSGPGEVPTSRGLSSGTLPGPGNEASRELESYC

T3: human GIP receptor (human, UniProt P48546 22-466)
T3 sequence (looked up): T2 sequence (looked up)

T4: human neuropeptide Y2 receptor (human, UniProt P49146 1-381)
T4 sequence (looked up): T1 sequence (looked up)

B1: Compound 169 (peptide)
peptide: YXEGTFTSDLSIXLEKQAQXAFVRHLINKXTRQRY
modifications: Aib at 2, 13, 20, 30; Lys29 epsilon-amino: C18DA-gGlu-gGlu-gGlu-gGlu-gGlu-gGlu-eLys; C-terminal amide
B2: Compound 144 (peptide)
peptide: B1 peptide with L10Y, A21S
modifications: Aib at 2, 13, 20, 30; Lys29 epsilon-amino: C18DA-gGlu-gGlu-gGlu-gGlu-gGlu-gGlu-eLys; C-terminal amide
B3: Compound 5 (peptide)
peptide: B1 peptide with L10Y, K16X
modifications: Aib at 2, 13, 16, 20, 30; Lys29 epsilon-amino acylated with C18DA-gGlu-gGlu-gGlu-gGlu-gGlu-gGlu-eLys; C-terminal amide
B4: Compound 40 (peptide)
peptide: B1 peptide with L10Y, E15D, K16E
modifications: Aib at 2, 13, 20, 30; Lys29 epsilon-amino acylated with C18DA-gGlu-gGlu-gGlu-gGlu-gGlu-gGlu-eLys; C-terminal amide
B5: Compound 50 (peptide)
peptide: B1 peptide with L10Y, H25Q
modifications: Aib at 2, 13, 20, 30; Lys29 epsilon-amino acylated with C18DA-gGlu-gGlu-gGlu-gGlu-gGlu; C-terminal amide
B6: Compound 102 (peptide)
peptide: B1 peptide with L10Y, E15D, V23I
modifications: Aib at 2, 13, 20, 30; Lys29 epsilon-amino: C18DA-gGlu-gGlu-gGlu-gGlu-gGlu-gGlu-eLys; C-terminal amide
B7: Compound 95 (peptide)
peptide: B1 peptide with L10Y, K16G
modifications: Aib at 2, 13, 20, 30; Lys29 epsilon-amino: C18DA-gGlu-gGlu-gGlu-gGlu-gGlu-gGlu-eLys; C-terminal amide
B8: Compound 76 (peptide)
peptide: B1 peptide with L10Y, V23I
modifications: Aib at 2, 20, 30; aMeL at 13; Lys29 epsilon-amino acylated with C18DA-gGlu-gGlu-gGlu-gGlu-gGlu-gGlu-eLys; C-terminal amide
B9: Compound 66 (peptide)
peptide: B1 peptide with L10Y, X30I
modifications: Aib at 2, 13, 20; Lys29 epsilon-amino acylated with C18DA-gGlu-gGlu-gGlu-gGlu-gGlu-gGlu-eLys; C-terminal amide
B10: Compound 83 (peptide)
peptide: B1 peptide with L10Y, A21E, X30L
modifications: Aib at 2, 13, 20; Lys29 epsilon-amino acylated with C18DA-gGlu-gGlu-gGlu-gGlu-gGlu-gGlu-eLys; C-terminal amide
B11: Compound 1 (peptide)
peptide: B1 peptide
modifications: Aib at 2, 13, 20, 30; Lys29 epsilon-amino acylated with C20DA-gGlu-gGlu-gGlu-gGlu-gGlu-AHX-AHX; C-terminal amide
B12: Compound 69 (peptide)
peptide: B1 peptide with L10Y, X30L
modifications: Aib at 2, 13, 20; Lys29 epsilon-amino acylated with C18DA-gGlu-gGlu-gGlu-gGlu-gGlu-AHX; C-terminal amide
B13: Compound 39 (peptide)
peptide: B1 peptide with L10Y, A21E, X30L
modifications: Aib at 2, 13, 20; Lys29 epsilon-amino acylated with C20DA-gGlu-gGlu-gGlu-gGlu-gGlu-gGlu-eLys; C-terminal amide
B14: Compound 143 (peptide)
peptide: B1 peptide with L10Y, Q17A
modifications: Aib at 2, 13, 20, 30; Lys29 epsilon-amino: C18DA-gGlu-gGlu-gGlu-gGlu-gGlu-gGlu-eLys; C-terminal amide
B15: Compound 84 (peptide)
peptide: B1 peptide with L10Y, Q19Y
modifications: Aib at 2, 13, 20, 30; Lys29 epsilon-amino acylated with C18DA-gGlu-gGlu-gGlu-gGlu-gGlu-gGlu-eLys; C-terminal amide
B16: Compound 126 (peptide)
peptide: B1 peptide with L10Y, X30V
modifications: Aib at 2, 13, 20; Lys29 epsilon-amino: C18DA-gGlu-gGlu-gGlu-gGlu-gGlu-gGlu-eLys; C-terminal amide
B17: Compound 170 (peptide)
peptide: B1 peptide with L10Y, X20E
modifications: Aib at 2, 13, 30; Lys29 epsilon-amino: C18DA-gGlu-gGlu-gGlu-gGlu-gGlu-gGlu-eLys; C-terminal amide
B18: Compound 4 (peptide)
peptide: B1 peptide with L10Y, Q17A
modifications: Aib at 2, 13, 20, 30; Lys29 epsilon-amino acylated with C20DA-gGlu-gGlu-gGlu-gGlu-gGlu-gGlu-eLys; C-terminal amide
B19: Compound 55 (peptide)
peptide: B1 peptide with L10Y, E15D, K16A
modifications: Aib at 2, 13, 20, 30; Lys29 epsilon-amino acylated with C18DA-gGlu-gGlu-gGlu-gGlu-gGlu-gGlu-eLys; C-terminal amide
B20: Compound 65 (peptide)
peptide: B1 peptide with L10Y, K16L
modifications: Aib at 2, 13, 20, 30; Lys29 epsilon-amino acylated with C18DA-gGlu-gGlu-gGlu-gGlu-gGlu-gGlu-eLys; C-terminal amide
B21: Compound 61 (peptide)
peptide: B1 peptide with L10Y, X20A
modifications: Aib at 2, 13, 30; Lys29 epsilon-amino acylated with C18DA-gGlu-gGlu-gGlu-gGlu-gGlu-gGlu-eLys; C-terminal amide
B22: Compound 6 (peptide)
peptide: B1 peptide with L10Y, K16N
modifications: Aib at 2, 13, 20, 30; Lys29 epsilon-amino acylated with C18DA-gGlu-gGlu-gGlu-gGlu-gGlu-gGlu-eLys; C-terminal amide
B23: Compound 93 (peptide)
peptide: B1 peptide with G4A, L10Y
modifications: Aib at 2, 13, 20, 30; Lys29 epsilon-amino: C18DA-gGlu-gGlu-gGlu-gGlu-gGlu-gGlu-eLys; C-terminal amide
B24: Compound 75 (peptide)
peptide: B1 peptide with L10Y, K16E
modifications: Aib at 2, 13, 20, 30; Lys29 epsilon-amino acylated with C18DA-gGlu-gGlu-gGlu-gGlu-gGlu; C-terminal amide
B25: Compound 86 (peptide)
peptide: B1 peptide with L10Y, Y35X
modifications: Aib at 2, 13, 20, 30; Phe4F at 35; Lys29 epsilon-amino: C18DA-gGlu-gGlu-gGlu-gGlu-gGlu-gGlu-eLys; C-terminal amide

Columns and labels:
Experiment in all cases: cell-based or functional assay
[1] = target: T1, human neuropeptide Y2 receptor
[2] = target: T2, human GIP receptor
[3] = target: T3, human GIP receptor; remark: listed apart in the source
[4] = target: T4, human neuropeptide Y2 receptor; remark: listed apart in the source

Binder | EC50, CreLuc reporter, 100% hP [1] [nM] | EC50, CreLuc reporter, 0.5% hP [2] [nM] | EC50, CreLuc reporter, 100% hP [2] [nM] | EC50, CreLuc reporter, 0.5% hP [3] [nM] | EC50, CreLuc reporter, 100% hP [3] [nM] | EC50, CreLuc reporter, 0.5% hP [1] [nM] | EC50, CreLuc reporter, 0.5% hP [4] [nM] | EC50, CreLuc reporter, 100% hP [4] [nM]
Y[Aib]EGTFTSDLSI[Aib]LEKQAQ[Aib]AFVRHLINK([γGlu-εLys-γGlu-γGlu-γGlu-γGlu-γGlu-C20 diacid])[Aib]TRQRY-NH2 [Compound 60] | 124 | 0.3 | 8 |  |  |  |  | 
Y[Aib]EGTFTSDYSI[Aib]LEKQAQ[Aib]EFVRHLINK([AEEA-AEEA-γGlu-γGlu-γGlu-γGlu-C18 diacid])[Aib]TRQRY-NH2 [Compound 73] | 136 | 0.4 | 5.9 |  |  |  |  | 
Y[Aib]EGTFTSDYSI[Aib]LEKQAE[Aib]AFVRHLINK([εLys-γGlu-AEEA-γGlu-γGlu-γGlu-γGlu-C20 diacid])[Aib]TRQRY-NH2 [Compound 148] |  |  |  | 0.8 |  |  |  | 
B1 |  |  |  | 0.4 |  |  |  | 
B2 |  |  |  | 0.4 | 4.8 |  |  | 
B3 | 89.4 |  | 25 |  |  | 28.6 |  | 
B4 | 59.4 | 0.3 |  |  |  | 16.2 |  | 
B5 | 522 | 0.7 | 23.3 |  |  | 335 |  | 
B6 |  |  |  | 0.1 | 2.8 |  |  | 
B7 |  |  |  |  | 9.3 |  | 58 | 96.3
B8 | 24.3 |  | 0.5 |  |  | 7.2 |  | 
B9 | 99.3 | 0.2 |  |  |  | 9.8 |  | 
B10 | 31.7 | 0.4 |  |  |  | 16.8 |  | 
B11 | 127 | 0.2 | 10.3 |  |  | 12.6 |  | 
B12 | 56 | 0.2 | 5.5 |  |  | 7 |  | 
B13 | 119 | 0.9 | 22.9 |  |  | 10.8 |  | 
B14 |  |  |  | 0.3 |  |  |  | 

Binder | EC50, CreLuc reporter, 100% hP [1] [nM] | EC50, CreLuc reporter, 0.5% hP [2] [nM] | EC50, CreLuc reporter, 100% hP [2] [nM] | EC50, CreLuc reporter, 0.5% hP [3] [nM] | EC50, CreLuc reporter, 100% hP [3] [nM] | EC50, CreLuc reporter, 0.5% hP [1] [nM] | EC50, CreLuc reporter, 0.5% hP [4] [nM] | EC50, CreLuc reporter, 100% hP [4] [nM]
B15 | 55 | 5 | 48.4 |  |  | 18.5 |  | 
B16 |  |  |  | 0.4 |  |  |  | 
B17 |  |  |  | 0.4 |  |  | 43.8 | 244
B18 | 194 | 0.3 | 11.5 |  |  | 17.7 |  | 
B19 | 108 | 0.4 | 7 |  |  | 18.3 |  | 
B20 | 406 | 0.7 | 16.8 |  |  | 65.8 |  | 
B21 | 42.1 | 0.4 |  |  |  | 24.1 |  | 
B22 | 51 | 0.7 | 7.3 |  |  | 14.7 |  | 
B23 |  |  |  |  | 17.6 |  |  | 24.8
B24 | 904 | 0.3 | 13.2 |  |  | 191 |  | 
B25 |  |  |  | 0.3 | 5.9 |  | 33.2 | 162
Y[Aib]EGTFTSDYSI[Aib]LEKQAQ[Aib]EFVRHLINK([γGlu-γGlu-γGlu-γGlu-C18 diacid])[Aib]TRQRY-NH2 [Compound 79] | 99.1 |  | 4.7 |  |  | 57.9 |  | 
Y[Aib]EGTFTSDYSI[Aib]LDKQAQ[Aib]EFVRHLINK([εLys-γGlu-γGlu-γGlu-γGlu-γGlu-C18 diacid])[Aib]TRQRY-NH2 [Compound 113] |  |  |  | 0.2 | 5.5 |  |  | 
Y[Aib]EGTFTSDYSI[Aib]LDEQAQ[Aib]AFVRHLINK([εLys-γGlu-γGlu-γGlu-γGlu-γGlu-C20 diacid])[Aib]TRQRY-NH2 [Compound 138] |  |  |  | 0.5 | 11.5 |  |  | 
Y[Aib]EGTFTSDYSI[Aib]LEEEAQ[Aib]EFVRHLINK([γGlu-γGlu-γGlu-γGlu-C18 diacid])[Aib]TRQRY-NH2 [Compound 64] | 720 | 0.5 |  |  |  | 162 |  | 
Y[Aib]EGTFTSDYSI[Aib]LEKQAE[Aib]AFVRHLINK([εLys-εLys-γGlu-γGlu-γGlu-γGlu-γGlu-γGlu-C20 diacid])[Aib]TRQRY-NH2 [Compound 82] | 75.1 |  | 11.7 |  |  |  |  | 
